{
  "source": "patent US20100144634A1",
  "about": "(published 2010)",
  "binders": {"B1": {"name": "full-length ADAMTS13, recombinant, C-terminal V5-His (enzyme, UniProt Q76LX8 75-1427, looked up, not shown: small tags and cut ends)", "chain": "AAGGILHLELLVAVGPDVFQAHQEDTERYVLTNLNIGAELLRDPSLGAQFRVHLVKMVILTEPEGAPNITANLTSSLLSVCGWSQTINPEDDTDPGHADLVLYITRFDLELPDGNRQVRGVTQLGGACSPTWSCLITEDTGFDLGVTIAHEIGHSFGLEHDGAPGSGCGPSGHVMASDGAAPRAGLAWSPCSRRQLLSLLSAGRARCVWDPPRPQPGSAGHPPDAQPGLYYSANEQCRVAFGPKAVACTFAREHLDMCQALSCHTDPLDQSSCSRLLVPLLDGTECGVEKWCSKGRCRSLVELTPIAAVHGRWSSWGPRSPCSRSCGGGVVTRRRQCNNPRPAFGGRACVGADLQAEMCNTQACEKTQLEFMSQQCARTDGQPLRSSPGGASFYHWGAAVPHSQGDALCRHMCRAIGESFIMKRGDSFLDGTRCMPSGPREDGTLSLCVSGSCRTFGCDGRMDSQQVWDRCQVCGGDNSTCSPRKGSFTAGRAREYVTFLTVTPNLTSVYIANHRPLFTHLAVRIGGRYVVAGKMSISPNTTYPSLLEDGRVEYRVALTEDRLPRLEEIRIWGPLQEDADIQVYRRYGEEYGNLTRPDITFTYFQPKPRQAWVWAAVRGPCSVSCGAGLRWVNYSCLDQARKELVETVQCQGSQQPPAWPEACVLEPCPPYWAVGDFGPCSASCGGGLRERPVRCVEAQGSLLKTLPPARCRAGAQQPAVALETCNPQPCPARWEVSEPSSCTSAGGAGLALENETCVPGADGLEAPVTEGPGSVDEKLPAPEPCVGMSCPPGWGHLDATSAGEKAPSPWGSIRTGAQAAHVWTPAAGSCSVSCGRGLMELRFLCMDSALRVPVQEELCGLASKPGSRREVCQAVPCPARWQYKLAACSVSCGRGVVRRILYCARAHGEDDGEEILLDTQCQGLPRPEPQEACSLEPCPPRWKVMSLGPCSASCGLGTARRSVACVQLDQGQDVEVDEAACAALVRPEASVPCLIADCTYRWHVGTWMECSVSCGDGIQRRRDTCLGPQAQAPVPADFCQHLPKPVTVRGCWAGPCVGQGTPSLVPHEEAAAPGRTTATPAGASLEWSQARGLLFSPAPQPRRLLPGPQENSVQSSACGRQHLEPTGTIDMRGPGQADCAVAIGRPLGEVVTLRVLESSLNCSAGDMLLLWGRLTWRKMCRKLLDMTFSSKTNTLVVRQRCGRPGGGVLLRYGSQLAPETFYRECDMQLFGPWGEIVSPSLSPATSNAGGCRLFINVAPHARIAIHALATNMGAGTEGANASYILIRDTHSLRTTAFHGQQVLYWESESSQAEMEFSEGFLKAQASLRGQYWTLQSWVPEMQDPQSWKGKEGT", "notes": "mature; also called FL-A13; FL-AD13"}},
  "key": {"[1]": {"molecular_target": "T1, von Willebrand factor pre-denatured with 1.5 M guanidine-HCl at 37 C for two hours (UniProt P04275 764-2813)", "T1 construct": "mature; Same polypeptide as m1; also called VWF**; denatured VWF", "test": "SPR (BIAcore), guanidine-HCl denatured VWF injected over immobilised FL-A13, equilibrium fit"}, "[2]": {"molecular_target": "T2, von Willebrand factor (VWF), purified plasma-derived, multimeric, native (UniProt P04275 764-2813)", "T2 construct": "mature; human is implied; also called pvWF; plasma VWF", "test": "SPR (BIAcore), VWF injected under flow over FL-A13 immobilised on CM5, equilibrium fit, no EDTA", "method": "Briefly, the surface of a carboxymethylated dextran (CM5) chip was activated by injection of 35 μl mixture (1:1, vol:vol) of 0.4 M 1-ethyl-3-(3-dimethylaminopropyl) carbodiimide and 0.1 M N-hydroxysuccinimide according to manufacturer's instruction (BIAcore, Uppsala, Sweden). Approximately 2,000 to 8,000 response units (RU) (2˜10 ng/mm²) of purified recombinant proteins were covalently attached onto the activated CM5 chip surface. The control surface was activated similarly, but blocked by same amount of BSA (Sigma, St. Louis, Mo.). The reactive groups on the dextran surface were blocked by injection of 35 μl of 1 M ethanolamine (pH 8.5) at flow rate of 5 μl per min for 7 min. Then, purified plasma VWF at various concentrations (0-250 μg/ml or 0-1,000 nM as in FIG. 3; 0-125 μg/ml or 0-500 nM as in FIG. 4) in 10 mM HEPES, 150 mM NaCl, pH 7.5 containing 0.005% Tween 20 and 2 mg/ml BSA (HBS-T) were injected and passed over the surface at injection rate 10 to 100 μl/min or 20 μl/min for 3-5 min. […] The dissociation constants, KD (S) at the equilibrium were determined by fitting the data from the binding isotherm using a non-linear regression curve on the PRISM4 software (GraphPad Software, Inc., San Diego, Calif.). […]"}, "[3]": {"molecular_target": "T3, human factor VIII derivative lacking the entire B domain and acidic region a3 (741-1689), FVIII-2RKR, P00451", "T3 chain 1": "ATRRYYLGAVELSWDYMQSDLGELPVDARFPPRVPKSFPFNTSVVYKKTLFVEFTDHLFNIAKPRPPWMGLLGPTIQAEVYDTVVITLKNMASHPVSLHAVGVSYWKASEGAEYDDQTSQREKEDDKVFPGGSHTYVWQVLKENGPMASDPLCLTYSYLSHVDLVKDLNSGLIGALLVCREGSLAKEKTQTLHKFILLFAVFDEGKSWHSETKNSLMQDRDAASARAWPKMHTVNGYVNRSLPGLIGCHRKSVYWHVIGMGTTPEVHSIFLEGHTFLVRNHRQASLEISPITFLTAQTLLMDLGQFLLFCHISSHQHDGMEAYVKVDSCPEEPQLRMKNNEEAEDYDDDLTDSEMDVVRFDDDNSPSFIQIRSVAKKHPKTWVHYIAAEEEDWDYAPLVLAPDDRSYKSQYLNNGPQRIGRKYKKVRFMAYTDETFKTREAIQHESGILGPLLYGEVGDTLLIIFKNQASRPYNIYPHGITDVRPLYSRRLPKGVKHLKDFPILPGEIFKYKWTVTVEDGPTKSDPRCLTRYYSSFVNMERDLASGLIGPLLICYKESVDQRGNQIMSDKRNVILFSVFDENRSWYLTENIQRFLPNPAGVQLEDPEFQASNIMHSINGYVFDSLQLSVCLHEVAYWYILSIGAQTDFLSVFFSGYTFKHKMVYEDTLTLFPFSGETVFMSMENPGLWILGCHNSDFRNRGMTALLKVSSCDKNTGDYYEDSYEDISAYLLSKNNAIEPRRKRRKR", "T3 chain 2": "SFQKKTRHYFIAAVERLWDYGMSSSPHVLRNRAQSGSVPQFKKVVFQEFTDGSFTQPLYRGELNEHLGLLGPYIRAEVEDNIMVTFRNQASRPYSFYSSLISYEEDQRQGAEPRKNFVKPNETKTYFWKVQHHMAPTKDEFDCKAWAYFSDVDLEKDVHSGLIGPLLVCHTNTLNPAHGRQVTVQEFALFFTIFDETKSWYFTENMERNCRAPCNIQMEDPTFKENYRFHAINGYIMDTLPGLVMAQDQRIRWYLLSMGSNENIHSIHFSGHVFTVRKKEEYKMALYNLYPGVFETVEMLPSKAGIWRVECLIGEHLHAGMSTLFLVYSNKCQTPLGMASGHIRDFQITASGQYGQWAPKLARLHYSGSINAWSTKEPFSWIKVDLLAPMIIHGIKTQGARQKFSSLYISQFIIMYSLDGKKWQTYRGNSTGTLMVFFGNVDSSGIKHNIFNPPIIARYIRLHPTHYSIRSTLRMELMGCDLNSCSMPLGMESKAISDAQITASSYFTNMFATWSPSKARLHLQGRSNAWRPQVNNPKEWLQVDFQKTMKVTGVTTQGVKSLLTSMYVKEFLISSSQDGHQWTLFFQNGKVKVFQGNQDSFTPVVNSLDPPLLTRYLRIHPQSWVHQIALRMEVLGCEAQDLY"}, "[4]": {"molecular_target": "B-domainless derivative of human factor VIII, FVIII-SQ, P00451"}, "[5]": {"molecular_target": "recombinant human full-length coagulation factor VIII, P00451"}, "[6]": {"molecular_target": "T2, von Willebrand factor (VWF), purified …", "test": "SPR (BIAcore), VWF injected under flow over immobilised FL-A13, equilibrium fit, in the presence of 10 mM EDTA", "method": "Approximately 2,000 to 8,000 response units (RU) (2˜10 ng/mm²) of purified recombinant proteins were covalently attached onto the activated CM5 chip surface. The control surface was activated similarly, but blocked by same amount of BSA (Sigma, St. Louis, Mo.). The reactive groups on the dextran surface were blocked by injection of 35 μl of 1 M ethanolamine (pH 8.5) at flow rate of 5 μl per min for 7 min. Then, purified plasma VWF at various concentrations (0-250 μg/ml or 0-1,000 nM as in FIG. 3; 0-125 μg/ml or 0-500 nM as in FIG. 4) in 10 mM HEPES, 150 mM NaCl, pH 7.5 containing 0.005% Tween 20 and 2 mg/ml BSA (HBS-T) were injected and passed over the surface at injection rate 10 to 100 μl/min or 20 μl/min for 3-5 min. The HBS-T replaced the protein solution and continued to flow for approximately 4 min; further washing with HBS-T for 20-30 min regenerated the surfaces prior to the next injection. The dissociation constants, KD (S) at the equilibrium were determined by fitting the data from the binding isotherm using a non-linear regression curve on the PRISM4 software (GraphPad Software, Inc., San Diego, Calif.).\nFitting the data directly using BIAcore evaluation software, although it is relatively easy, may overestimate the binding affinity between VWF and ADAMTS13 due to the heterogeneity of VWF molecules. […]"}},
  "data": [
    {"binder": "B1", "values": [
      {"measurement": "Kd", "setting": "[1]", "result": 83, "unit": "nM"},
      {"measurement": "Kd", "setting": "[2]", "result": 50, "unit": "nM"},
      {"measurement": "increase of the initial rate of cleavage of FRETS-vWF73 and GST-vWF73 by ADAMTS13", "setting": "[3]", "result": "by a factor of 2 or 3"},
      {"measurement": "increase of the initial rate of cleavage of FRETS-vWF73 and GST-vWF73 by ADAMTS13", "setting": "[4]", "result": "by a factor of 2 or 3"},
      {"measurement": "increase of the initial rate of cleavage of FRETS-vWF73 and GST-vWF73 by ADAMTS13", "setting": "[5]", "result": "by a factor of 2 or 3"},
      {"measurement": "Kd", "setting": "[6]", "result": 77, "unit": "nM"}
    ]}
  ]
}
